# *1 amine or outer side, *2 acyl side, *3 side chain or, on linkers, in order; H or OH if unused. Bridges are numbered along the chain shown (N, C = ends). Primed or numbered codes have the meaning given here. Where no end group is shown, it is not given here. Side-chain parts run from the residue outwards. [ ]: non-standard residue; d: D form. K(d) = (2R)-2-(4-((5-amino-5-carboxypentyl)amino)-4-oxobutanamido)-3-carboxy-N,N,N-trimethylpropan-1-aminium, C[N+](C)(C)C[C@@H](CC(=O)[*:3])NC(=O)CCC(=O)NCCCC[C@H](N[*:1])C(=O)[*:2]; TMAPF = 5-(4-(2-amino-2-carboxyethyl)phenoxy)-N,N,N-trimethylpentan-1-aminium, C[N+](C)(C)CCCCCOc1ccc(C[C@H](N[*:1])C(=O)[*:2])cc1; PEG2′ = PEG2 spacer unit (not further defined); Trp(7-Me) = Cc1cccc2c(C[C@H](N)C(=O)O)c[nH]c12; γGlu = O=C(O)[C@H](CCC(=O)[*:2])N[*:1]; 2Nal = N[C@@H](Cc1ccc2ccccc2c1)C(=O)O; AEF = NCCOc1ccc(C[C@H](N)C(=O)O)cc1; 3Pal = N[C@@H](Cc1cccnc1)C(=O)O; NMeK = CN[C@@H](CCCCN)C(=O)O; NMecPEG3a = not defined here; Pen = CC(C)(S)[C@H](N)C(=O)O; NMeC18OH = not defined here; PEG2(3) = not defined here; 5cpaCO = not defined here; PEG12′ = not defined here; PEG2″ = PEG2 spacer unit; Thp = NC1(C(=O)O)CCOCC1; Sar = CNCC(=O)O
# T1: interleukin-23 receptor (IL-23R) (UniProt Q5VWK5 24-629, limits assumed)
# T1 sequence (looked up): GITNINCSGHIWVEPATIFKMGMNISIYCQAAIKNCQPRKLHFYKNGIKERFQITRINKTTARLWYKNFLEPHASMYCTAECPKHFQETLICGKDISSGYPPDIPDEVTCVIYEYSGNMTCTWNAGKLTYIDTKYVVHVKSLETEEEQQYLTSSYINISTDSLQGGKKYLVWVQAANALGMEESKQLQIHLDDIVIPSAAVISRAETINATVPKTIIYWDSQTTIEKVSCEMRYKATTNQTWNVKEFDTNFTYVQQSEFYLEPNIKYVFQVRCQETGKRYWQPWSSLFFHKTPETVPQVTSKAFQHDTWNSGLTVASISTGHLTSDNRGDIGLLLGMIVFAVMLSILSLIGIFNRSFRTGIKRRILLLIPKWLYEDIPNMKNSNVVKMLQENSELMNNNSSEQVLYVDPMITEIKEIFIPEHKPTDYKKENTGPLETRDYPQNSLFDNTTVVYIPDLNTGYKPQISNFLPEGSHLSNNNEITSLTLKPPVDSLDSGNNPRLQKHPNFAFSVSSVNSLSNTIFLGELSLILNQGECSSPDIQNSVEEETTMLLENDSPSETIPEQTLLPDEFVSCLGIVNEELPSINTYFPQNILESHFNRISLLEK
# B1: SEQ ID NO: 76 (peptide)
# peptide: Ac-[dR][Pen]K([PEG2″-PEG2″-γGlu-C18OH])T[Trp(7-Me)]K(NMecPEG3a)[Pen][AEF][2Nal][Thp]EN[3Pal][Sar]-NH2
# modifications: disulfide 2-7 (inferred); reading uncertain; also: printed as MeCO-r-Pen(3)-K(PEG2PEG2gEC18OH)-T-7MeW-K(NMecPEG3a)-Pen(3)-AEF-2Nal-THP-E-N-3Pya-Sar-CONH2
# B2: SEQ ID NO: 96 (peptide)
# peptide: XNTXKXXXXENXX
# modifications: MeCO-Pen(3)-N-T-7MeW-K(PEG12gEC18OH)-Pen(3)-AEF-2Nal-THP-E-N-3Pya-Sar-CONH2
# B3: SEQ ID NO: 97 (peptide)
# peptide: Ac-[Pen]K([PEG12′-γGlu-C18OH])T[Trp(7-Me)]K(Ac)[Pen][AEF][2Nal][Thp]EN[3Pal][Sar]-NH2
# modifications: disulfide 1-6 (inferred)
# B4: SEQ ID NO: 74 (peptide)
# peptide: Ac-[dR][Pen]K([PEG2″-PEG2″-γGlu-C18OH])T[Trp(7-Me)]K(Ac)[Pen][AEF][2Nal][Thp]K(NMecPEG3a)N[3Pal][Sar]-NH2
# modifications: disulfide 2-7 (inferred); reading uncertain; also: printed as MeCO-r-Pen(3)-K(PEG2PEG2gEC18OH)-T-7MeW-K(Ac)-Pen(3)-AEF-2Nal-THP-K(NMecPEG3a)-N-3Pya-Sar-CONH2
# B5: SEQ ID NO: 75 (peptide)
# peptide: Ac-[dR][Pen]K([PEG2″-PEG2″-γGlu-C18OH])T[Trp(7-Me)]K(Ac)[Pen][TMAPF][2Nal][Thp]EN[3Pal][Sar]-NH2
# modifications: disulfide 2-7 (inferred)
# B6: SEQ ID NO: 83 (peptide)
# peptide: {HOC18-γGlu-PEG2″-PEG2″}-[dR][Pen]NT[Trp(7-Me)]K(Ac)[Pen][TMAPF][2Nal][Thp]EN[3Pal][Sar]-NH2
# modifications: disulfide 2-7 (inferred); not fully specified
# B7: SEQ ID NO: 9 (peptide)
# peptide: Ac-[dR][Pen]NT[Trp(7-Me)]K(Ac)[Pen][AEF]([PEG2′-PEG2′-γGlu-C18OH])[2Nal][Thp][K(d)]N[3Pal][Sar]-NH2
# modifications: disulfide 2-7 (inferred)
# B8: SEQ ID NO: 147 (peptide)
# peptide: XNTXXXXXXENXX
# modifications: not fully specified; MeCO-Pen(3)-N-T-7MeW-K(Ac)-Pen(3)-AEF-2Nal-THP-E-N-3Pya-Sar-CO(PEG2PEG2gEC18OH)
# B9: SEQ ID NO: 84 (peptide)
# peptide: {HOC18-γGlu-PEG2′-PEG2′}-[dR][Pen]NT[Trp(7-Me)]K(NMecPEG3a)[Pen][AEF][2Nal][Thp]EN[3Pal][Sar]-NH2
# modifications: disulfide 2-7 (inferred); not fully specified; printed as HOC18gEPEG2PEG2CO-r-Pen(3)-N-T-7MeW-K(NMecPEG3a)-Pen(3)-AEF-2Nal-THP-E-N-3Pya-Sar-CONH2; reading uncertain
# B10: SEQ ID NO: 12 (peptide)
# peptide: Ac-[dR][Pen]K([PEG2(3)-PEG2(3)-γGlu-C18OH])T[Trp(7-Me)]K(Ac)[Pen][AEF][2Nal][Thp][K(d)]N[3Pal][Sar]-NH2
# modifications: disulfide 2-7 (inferred)
# B11: SEQ ID NO: 64 (peptide)
# peptide: XNTXXXXXXKNXX
# modifications: not fully specified; MeCO-Pen(3)-N-T-7MeW-K(Ac)-Pen(3)-AEF-2Nal-THP-K(PEG2PEG2gEC18OH)-N-3Pya-Sar-CONH(PEG3a)
# B12: SEQ ID NO: 65 (peptide)
# peptide: Ac-[dR][Pen]NT[Trp(7-Me)]K([PEG2″-PEG2″-γGlu-C18OH])[Pen][AEF][2Nal][Thp]EN[3Pal][Sar]
# modifications: disulfide 2-7 (inferred); not fully specified (C-terminus); printed as MeCO-r-Pen(3)-N-T-7MeW-K(PEG2PEG2gEC18OH)-Pen(3)-AEF-2Nal-THP-E-N-3Pya-Sar-CONH(PEG3a)
# B13: SEQ ID NO: 10 (peptide)
# peptide: Ac-[dR][Pen][K(d)]T[Trp(7-Me)]K(Ac)[Pen][AEF][2Nal][Thp]EN[3Pal][Sar]-NH2
# modifications: disulfide 2-7 (inferred); not fully specified (residue 8); printed as MeCO-r-Pen(3)-K(d)-T-7MeW-K(Ac)-Pen(3)-AEF(PEG2PEG2gEC18OH)-2Nal-THP-E-N-3Pya-Sar-CONH2
# B14: SEQ ID NO: 1 (peptide)
# peptide: XNTXXXXXXENXXK
# modifications: MeCO-Pen(3)-N-T-7MeW-K(Ac)-Pen(3)-AEF-2Nal-THP-E-N-3Pya-Sar-K(Sar-S-Sar-S-Sar-S-Sar-C14)-CONH2
# B15: SEQ ID NO: 82 (peptide)
# peptide: {HOC18-γGlu-PEG2″-PEG2″}-[dR][Pen]NT[Trp(7-Me)]K(Ac)[Pen][AEF][2Nal][Thp]K(NMecPEG3a)N[3Pal][Sar]-NH2
# modifications: disulfide 2-7 (inferred); not fully specified; printed as HOC18gEPEG2PEG2CO-r-Pen(3)-N-T-7MeW-K(Ac)-Pen(3)-AEF-2Nal-THP-K(NMecPEG3a)-N-3Pya-Sar-CONH2; reading uncertain
# B16: SEQ ID NO: 66 (peptide)
# peptide: Ac-[dR][Pen]K([PEG2″-PEG2″-γGlu-C18OH])T[Trp(7-Me)]K(Ac)[Pen][AEF][2Nal][Thp]EN[3Pal][Sar]
# modifications: disulfide 2-7 (inferred); not fully specified (C-terminus); printed as MeCO-r-Pen(3)-K(PEG2PEG2gEC18OH)-T-7MeW-K(Ac)-Pen(3)-AEF-2Nal-THP-E-N-3Pya-Sar-CONH(PEG3a)
# B17: SEQ ID NO: 5 (peptide)
# peptide: RXNTWXXXXXENXX
# modifications: C12gEPEG2PEG2CO-r-Abu(1)-N-T-W-K(Ac)-aMeC(1)-AEF-2Nal-THP-E-N-3Pya-Sar-CONH2
# B18: SEQ ID NO: 85 (peptide)
# peptide: Ac-[Pen]NT[Trp(7-Me)]K(Ac)[Pen][TMAPF][2Nal][Thp]K([PEG2′-PEG2′-γGlu-C18OH])N[3Pal][Sar]-NH2
# modifications: disulfide 1-6 (inferred)
# B19: SEQ ID NO: 86 (peptide)
# peptide: XNTXKXXXXKNXX
# modifications: MeCO-Pen(3)-N-T-7MeW-K(NMecPEG3a)-Pen(3)-AEF-2Nal-THP-K(PEG2PEG2gEC18OH)-N-3Pya-Sar-CONH2
# B20: SEQ ID NO: 81 (peptide)
# peptide: 5cpaCO-[dR][Pen]NT[Trp(7-Me)]K(Ac)[Pen][AEF][2Nal][Thp]EN[3Pal][Sar]K([PEG2′-PEG2′-γGlu-C18OH])-NH2
# modifications: disulfide 2-7 (inferred); reading uncertain; also: printed as 5cpaCO-r-Pen(3)-N-T-7MeW-K(Ac)-Pen(3)-AEF-2Nal-THP-E-N-3Pya-Sar-K(PEG2PEG2gEC18OH)-CONH2
# B21: SEQ ID NO: 79 (peptide)
# peptide: Ac-[dR][Pen]NT[Trp(7-Me)]K([PEG2′-PEG2′-γGlu-C18OH])[Pen][AEF][2Nal][Thp]K(NMecPEG3a)N[3Pal][Sar]-NH2
# modifications: disulfide 2-7 (inferred); reading uncertain; also: printed as MeCO-r-Pen(3)-N-T-7MeW-K(PEG2PEG2gEC18OH)-Pen(3)-AEF-2Nal-THP-K(NMecPEG3a)-N-3Pya-Sar-CONH2
# B22: SEQ ID NO: 80 (peptide)
# peptide: Ac-[dR][Pen]NT[Trp(7-Me)]K(Ac)[Pen][AEF][2Nal][Thp]EN[3Pal][NMeK]([PEG2′-NMePEG2-NMegE-NMeC18OH])-NH2
# modifications: disulfide 2-7 (inferred); reading uncertain
# B23: SEQ ID NO: 146 (peptide)
# peptide: Ac-[dR][Pen]NT[Trp(7-Me)]K(Ac)[Pen][AEF][2Nal][Thp]K([PEG12′-γGlu-C18OH])N[3Pal][Sar]-NH2
# modifications: disulfide 2-7 (inferred)
# B24: SEQ ID NO: 160 (peptide)
# peptide: cPEG3aCO-[dR][Pen]NT[Trp(7-Me)]K(Ac)[Pen][AEF][2Nal][Thp]EN[3Pal][Sar]K([PEG2(3)-PEG2(3)-γGlu-C18OH])-NH2
# modifications: disulfide 2-7 (inferred)
# B25: SEQ ID NO: 162 (peptide)
# peptide: XNTXXXXXXKNXX
# modifications: MeCO-Pen(3)-N-T-7MeW-K(Ac)-Pen(3)-AEF-2Nal-THP-K(PEG12gEC20OH)-N-3Pya-Sar-CONH2
# Target: T1, interleukin-23 receptor (IL-23R)
# Assay: cell-based or functional assay
row,Binder,"IC50, IL23R reporter assay [nM]"
1,B1,< 50
2,B2,< 50
3,B3,< 50
4,B4,< 50
5,B5,< 50
6,B6,< 50
7,B7,< 50
8,B8,≥ 500
9,B9,< 50
10,B10,< 50
11,B11,≥ 500
12,B12,≥ 500
13,B13,< 50
14,B14,< 50
15,B15,< 50
16,B16,≥ 500
17,B17,< 50

# Target: T1, interleukin-23 receptor (IL-23R)
# Assay: cell-based or functional assay
# Remark: another data set of the same source
row,Binder,PBMC pSTAT3 IC50 [nM]
1,B1,< 0.5
2,B2,< 0.5
3,B18,< 0.5
4,B19,< 0.5
5,B3,< 0.5
6,B20,< 0.5
7,B21,< 0.5
8,B22,< 0.5
9,B4,< 0.5
10,B5,< 0.5
11,B6,< 0.5
12,B23,< 0.5
13,B7,< 0.5
14,B9,< 0.5
15,B24,< 0.5
16,B25,< 0.5
17,B15,< 0.5

# Source: US20260250320A1, “LIPIDATED PEPTIDE INHIBITORS OF INTERLEUKIN-23 RECEPTOR” (Janssen Pharmaceutica NV, priority 2023, published 2026)
